Data as given in US8632988.

Tests used:
human hemoglobin (human) = human hemoglobin (human) (UniProt P69905); experiment: cell-based or functional assay
mouse hemoglobin (mouse) = mouse hemoglobin (mouse) (UniProt P01942); experiment: cell-based or functional assay
Sequence of UniProt P01942 (P01942 2-142, chain 1 of 2): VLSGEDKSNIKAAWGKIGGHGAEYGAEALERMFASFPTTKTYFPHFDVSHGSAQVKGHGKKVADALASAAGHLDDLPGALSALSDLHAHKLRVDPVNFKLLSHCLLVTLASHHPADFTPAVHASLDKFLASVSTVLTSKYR
Sequence of UniProt P01942 (P02088 2-147, chain 2 of 2, further chain): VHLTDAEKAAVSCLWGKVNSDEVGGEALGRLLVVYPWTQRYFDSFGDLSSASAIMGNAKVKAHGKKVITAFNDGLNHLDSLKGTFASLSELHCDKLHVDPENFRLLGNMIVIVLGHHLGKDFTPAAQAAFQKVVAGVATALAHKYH

Sequence of UniProt P69905 (P69905 2-142, chain 1 of 2): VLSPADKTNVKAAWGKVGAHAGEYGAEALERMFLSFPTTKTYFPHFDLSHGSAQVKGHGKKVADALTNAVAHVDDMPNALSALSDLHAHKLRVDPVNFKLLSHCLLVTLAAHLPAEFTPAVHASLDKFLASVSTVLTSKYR
Sequence of UniProt P69905 (P68871 2-147, chain 2 of 2, further chain): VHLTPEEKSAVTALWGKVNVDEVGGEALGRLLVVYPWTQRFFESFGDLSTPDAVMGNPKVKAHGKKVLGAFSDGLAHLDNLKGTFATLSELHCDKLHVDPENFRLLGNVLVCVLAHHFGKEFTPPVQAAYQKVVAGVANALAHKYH

**Q.** With “IsdB on the cell wall of iron-starved S. aureus strain Newman (from UniProt A6QG30 41-613) (receptor)” as the substance, how does the time at which growth appears around hemoglobin disks on iron-deficient solid medium (human hemoglobin (human)) read?
**A.** 24 h

**Q.** And the time at which growth appears around hemoglobin disks on iron-deficient solid medium (mouse hemoglobin (mouse))?
**A.** 72 h
